Test [1] deals with talin VBS1 (H1-H4) residues 482-636 (UniProt Q9Y490). Kind of test: ITC. Background: In ITC the heat of successive injections is recorded.
Test [2] concerns the target IpaA 483-633 containing all three VBS1-3 (A483) (Shigella flexneri) (UniProt P18010). Kind of test: SEC-MALS. (In gel filtration, larger molecules generally elute earlier.)
For test [3], the target named is talin VBS1 (H1-H4) residues 482-636 (UniProt Q9Y490). As to the kind of experiment: SEC-MALS.
In test [4] the target is IpaA 483-633 containing all three VBS1-3 (A483) (Shigella flexneri) (UniProt P18010). Kind of test: ITC.
Test [5] deals with IpaA 524-633 containing only IpaA VBS1-2 (A524) (Shigella flexneri) (UniProt P18010). Kind of test: ITC.

The text below walks through data of article doi:10.1101/329136.

As usually defined, the pKd is the Kd on a negative log10 scale, so that one unit is a factor of ten. In general, stoichiometry N refers to the number of molecules, sites or subunits per partner or assembly.

pKd: −log10 of the molar value.

In test [1], IpaA VTBS A495K peptide gave a negative logarithm of the Kd (pKd) of 5.53. The substance IpaA VTBS K498E peptide showed a pKd in test [1] of 6.52.

The substance IpaA VTBS R489A K498A peptide gave a pKd in test [1] of 6.48. This pKd and that of the substance before are within 0.2 log units of each other. On the same count and under the same terms, with IpaA VTBS peptide (488-512) the figure was 6.76; with “IpaA-VBS1 peptide (611-633) (from UniProt P18010 611-633)”, 4.82. On the same count and under the same terms, with Talin VBS46 peptide the figure was 7.22; with Talin VBS50 peptide, 4.35 to 4.82. In test [2], “talin VBS1 (H1-H4) residues 482-636 (from UniProt Q9Y490 482-636) (domain or fragment)” displayed a stoichiometry N (talin H1-H4 per A483) of 2. The substance further yielded a stoichiometry N in test [3] of 2. In test [4], this substance gave a KD of the first, high affinity site of 0.115 µM and a KD of the second site of 4.6 µM. For the same substance, the pKd in test [5] is 5.70.
